Experimental data taken from patent US20180207271A1 (CENTRE HOSPITALIER UNIVERSITAIRE VAUDOIS CHUV, published 2018).

B1: recombinant human IL-26 (ligand, UniProt Q9NPH9 22-171, looked up)
chain: KHKQSSFTKSCYPRGTLSQAVDALYIKAAWLKATIPEDRIKNIRLLKKKTKKQFMKNCQFQEQLLSFFMEDVFGQLQLQGCKKIRFVEDFHSLRQKLSHCISCASSAREMKSITRMKRIFYRIGNKGIYKAISELDILLSWIKKLLESSQ
notes: In some functional rows the IL-26 is natural IL-26 in TH17 cell supernatants, as said in the readout; also called rhIL-26; AK155
B2: anti-IL-26 mouse monoclonal antibody clone 142-84-B1 (antibody, V domains shown)
VH: QVQLQQSGAELVRPGASVTLSCKASGFTFPDYEIHWVRQTPVHGLEWIGGIDPETGDTANNQKFKGKATLTADTSSSTAYMELRSLTSEDSAVYYCTRFYGSFDYWDQGTTLTVSS
VL: NIMMTQSPSSLAVSAGEKVTLSCKSSQSVLYSSNQKNYLAWYQQKPGQSPKLLIYWASTRESGVPDRFTGSGSGTDFTLTISSVQAEDLAVYYCHQYLSSYTFGGGTKLEIK
notes: Mouse hybridoma antibody, IgG1; also called clone 84

Key:
[1] = biological target: the molecule itself; assay: small angle X-ray scattering (SAXS) of rhIL-26, self-association
Experimental: IL-26 was suspended in 16 mM sodium phosphate buffer, pH 6.5, 560 mM NaCl, 8% glycerol, 2 mM β-mercaptoethanol and concentrated to 1.1 mg/ml. Data were recorded at the ALS, Berkeley, Calif., beamline 12.3.1. (SIBYLS) at 10° C. using a wavelength of 1 A, for values of the momentum transfer vector q=(4π sin θ)/λ between 0.01 and 0.32 Å-1. The same sample was sequentially exposed to X-rays for 0.5s, 1s and 5s. Samples containing buffer only were measured before and after protein samples. The buffer contributions were subtracted from protein scattering data using the ogre new software program available at SIBYLS. Data were not affected by radiation damage as indicated by a constant Rg of the Guinier region for subsequent sample exposures. A combined SAXS pattern was obtained through scaling and merging selected regions of buffer-subtracted scattering pattern for the 0.5s, 1s and 5s exposures. Data between q=0.01 and 0.13 Å-1 were analyzed using PRIMUS, SASREF and DAMMIF of the ATSAS software package.

recombinant human IL-26 = biological target: B1; assay: ELISA screen of hybridomas

Binder	binding result [1]	binding result (recombinant human IL-26)
B1	binds	–
B2	–	binds
